Measurements published in patent US20240270821A1, “GIP/GLP1/GCG TRI-RECEPTOR AGONISTS AND USES THEREOF” (priority 2023, published 2024).

How the values were obtained:
Experiment in all cases: cell-based or functional assay
hGLP-1R = hGLP-1R (Homo sapiens, UniProt P43220)
[1] = target: T1, human GIP receptor (human) (UniProt P48546)
T1 sequence (looked up): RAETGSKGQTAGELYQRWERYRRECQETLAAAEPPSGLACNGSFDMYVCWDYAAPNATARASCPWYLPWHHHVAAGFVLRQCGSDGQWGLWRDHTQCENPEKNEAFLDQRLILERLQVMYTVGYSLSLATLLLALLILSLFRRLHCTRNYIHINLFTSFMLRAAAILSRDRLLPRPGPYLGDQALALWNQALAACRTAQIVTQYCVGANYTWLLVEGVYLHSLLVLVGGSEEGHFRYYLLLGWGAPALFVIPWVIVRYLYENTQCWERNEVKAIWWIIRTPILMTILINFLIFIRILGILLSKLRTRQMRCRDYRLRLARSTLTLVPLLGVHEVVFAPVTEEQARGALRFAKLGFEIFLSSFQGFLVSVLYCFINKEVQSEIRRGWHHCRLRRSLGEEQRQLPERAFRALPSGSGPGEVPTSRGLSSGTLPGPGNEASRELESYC

[2] = target: human glucagon receptor (human) (UniProt P47871)
Sequence of human glucagon receptor (human) (P47871 26-477): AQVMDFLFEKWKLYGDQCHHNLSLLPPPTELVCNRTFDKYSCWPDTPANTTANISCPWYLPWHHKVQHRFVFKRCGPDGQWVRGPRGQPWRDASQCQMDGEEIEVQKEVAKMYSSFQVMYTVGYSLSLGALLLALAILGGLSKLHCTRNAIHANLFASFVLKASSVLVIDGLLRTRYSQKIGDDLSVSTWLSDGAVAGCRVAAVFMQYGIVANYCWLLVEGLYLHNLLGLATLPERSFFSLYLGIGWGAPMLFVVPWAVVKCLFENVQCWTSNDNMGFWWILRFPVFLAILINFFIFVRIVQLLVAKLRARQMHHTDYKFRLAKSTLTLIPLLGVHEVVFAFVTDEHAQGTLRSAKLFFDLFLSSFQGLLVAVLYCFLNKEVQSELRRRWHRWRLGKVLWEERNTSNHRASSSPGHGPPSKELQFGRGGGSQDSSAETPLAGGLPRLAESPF

Sequence of hGLP-1R (P43220 24-463): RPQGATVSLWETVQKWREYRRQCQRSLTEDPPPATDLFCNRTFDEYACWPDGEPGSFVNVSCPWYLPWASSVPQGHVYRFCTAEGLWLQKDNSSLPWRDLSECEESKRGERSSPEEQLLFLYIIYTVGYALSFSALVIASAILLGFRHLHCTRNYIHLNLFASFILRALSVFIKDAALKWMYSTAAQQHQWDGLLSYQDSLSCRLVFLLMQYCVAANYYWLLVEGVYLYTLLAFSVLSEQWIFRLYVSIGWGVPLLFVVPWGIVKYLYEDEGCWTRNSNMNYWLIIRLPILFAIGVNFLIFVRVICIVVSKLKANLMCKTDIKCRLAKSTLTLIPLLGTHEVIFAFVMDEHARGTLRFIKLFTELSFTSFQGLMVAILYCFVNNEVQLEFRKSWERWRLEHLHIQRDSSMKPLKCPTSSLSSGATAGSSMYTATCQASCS

| Binder | Relative cAMP EC50 (hGLP-1R) | cAMP Rel EC50, nM (in the presence of 1% HSA) (hGLP-1R) | Relative cAMP EC50 [1] | cAMP Rel EC50, nM (in the presence of 1% HSA) [1] | Relative cAMP EC50 [2] | cAMP Rel EC50, nM (in the presence of 1% HSA) [2] | cAMP Rel EC50 (in the presence of 1% HSA) (hGLP-1R) | cAMP Rel EC50 (in the presence of 1% HSA) [1] | cAMP Rel EC50 (in the presence of 1% HSA) [2] | cAMP Rel EC50 (1% HSA) (hGLP-1R) | cAMP Rel EC50 (1% HSA) [1] | cAMP Rel EC50 (1% HSA) [2] |
| --- | --- | --- | --- | --- | --- | --- | --- | --- | --- | --- | --- | --- |
| YXQGTFTSDFSKXLDKKAQXAFIEYLLEGGPSSGEPPPGEGX (synthetic construct; SITE 2: note = 2-Aminoisobutyric Acid; SITE 13: note = alpha-methyl-leucine; SITE 17: note = Lysine is chemically modified through conjugation of the epsilon-amino group of the Lysine side chain with (2-[2-(2-Amino-ethoxy)-ethoxy]-acetyl)-(gamma-Glu)-CO-(CH2) 18-CO2H; SITE 20: n) [Example 54] | 3.95 nM | 1300 nM | 0.502 nM | 168 nM | 3.77 nM | 1940 nM | – | – | – | – | – | – |
| YXQGTFTSDFSKXLDKKAQXAFIEYLLEGGPSSGAPPPSEGX (synthetic construct; SITE 2: note = 2-Aminoisobutyric Acid; SITE 13: note = alpha-methyl-leucine; SITE 17: note = Lysine is chemically modified through conjugation of the epsilon-amino group of the Lysine side chain with (2-[2-(2-Amino-ethoxy)-ethoxy]-acetyl)-(gamma-Glu)-CO-(CH2) 16-CO2H; SITE 20: n) [Example 56] | 4.07 nM | 167 nM | 0.315 nM | 30.3 nM | 2.8 nM | 265 nM | – | – | – | – | – | – |
| YXQGTXTSDXXIXLDXKAQXXFIEXLTEGGPSSGEPPPEGTEEE (acylated Lys (γGlu)2-C18 diacid; non-natural residues; C-terminal amide; synthetic construct; SITE 2: note = 2-Aminoisobutyric Acid; SITE 6: note = alpha-methyl-2-fluoro-L-phenylalanine; SITE 10: note = 3-(4-Pyridyl)-L-alanine; SITE 11: note = alpha-methyl-L-serine; SITE 13: note = alpha-methyl-leucine; SITE 16: note = L-ornithine; SITE 17: note = Lysine is chemically mo) [Example 598] | 0.886 nM | – | 0.0927 nM | – | 8.79 nM | – | 47.3 nM | 3.49 nM | 457 nM | – | – | – |
| YXQGTFTSDFSKXLDKKAQXAFIEYLLEGGPSSGAPPPXEG (synthetic construct; SITE 2: note = 2-Aminoisobutyric Acid; SITE 13: note = alpha-methyl-leucine; SITE 17: note = Lysine is chemically modified through conjugation of the epsilon-amino group of the Lysine side chain with (2-[2-(2-Amino-ethoxy)-ethoxy]-acetyl)-(gamma-Glu)-CO-(CH2) 18-CO2H; SITE 20: n) [Example 52] | 5.18 nM | 1250 nM | 0.449 nM | 111 nM | 5.84 nM | 1740 nM | – | – | – | – | – | – |
| YXQGTFTSDFSKXLDKKAQXAFIEYLLEGGPSSGAPPPXGE (synthetic construct; SITE 2: note = 2-Aminoisobutyric Acid; SITE 13: note = alpha-methyl-leucine; SITE 17: note = Lysine is chemically modified through conjugation of the epsilon-amino group of the Lysine side chain with (2-[2-(2-Amino-ethoxy)-ethoxy]-acetyl)-(gamma-Glu)-CO-(CH2) 18-CO2H; SITE 20: n) [Example 53] | 3.31 nM | 1030 nM | 0.518 nM | 113 nM | 4.19 nM | 1780 nM | – | – | – | – | – | – |
| YXQGTXTSDXXIXLDXKAQXXFIEYLIEGGPSSGEPPPSGTGE (synthetic construct; SITE 2: note = 2-Aminoisobutyric Acid; SITE 6: note = alpha-methyl-2-fluoro-L-phenylalanine; SITE 10: note = 3-(4-Pyridyl)-L-alanine; SITE 11: note = alpha-methyl-L-serine; SITE 13: note = alpha-methyl-leucine; SITE 16: note = L-ornithine; SITE 17: note = Lysine is chemically mo) [Example 523] | 0.482 nM | – | 0.021 nM | – | 3.79 nM | – | – | – | – | 27.1 nM | 0.869 nM | 234 nM |
| YXQGTXTSDXXIXLDXKAQXQFIEXLQEGGPSSGEPPPEGTGE (synthetic construct; SITE 2: note = 2-Aminoisobutyric Acid; SITE 6: note = alpha-methyl-2-fluoro-L-phenylalanine; SITE 10: note = 3-(4-Pyridyl)-L-alanine; SITE 11: note = alpha-methyl-L-serine; SITE 13: note = alpha-methyl-leucine; SITE 16: note = L-ornithine; SITE 17: note = Lysine is chemically mo) [Example 529] | 0.467 nM | – | 0.0273 nM | – | 6.59 nM | – | – | – | – | 24.5 nM | 1.39 nM | 398 nM |
| YXQGTXTSDXXILLDXKAQXXFIEYLIEGGPSSGEPPPEGGEE (non-natural residues, acylated Lys ((γGlu)2-C18 diacid), C-terminal amide; synthetic construct; SITE 2: note = 2-Aminoisobutyric Acid; SITE 6: note = alpha-methyl-2-fluoro-L-phenylalanine; SITE 10: note = 3-(4-Pyridyl)-L-alanine; SITE 11: note = alpha-methyl-L-serine; SITE 16: note = L-ornithine; SITE 17: note = Lysine is chemically modified through conjugation of the epsi) [Example 605] | 0.795 nM | – | 0.132 nM | – | 5.49 nM | – | 56.2 nM | 6.69 nM | 353 nM | – | – | – |
| YXQGTXTSDXXIXLDXKAQXXFIEYLIEGGPSSGEPPPSGTGE (not fully specified; C-terminal amide; synthetic construct; SITE 2: note = 2-Aminoisobutyric Acid; SITE 6: note = alpha-methyl-2-fluoro-L-phenylalanine; SITE 10: note = 3-(4-Pyridyl)-L-alanine; SITE 11: note = alpha-methyl-L-serine; SITE 13: note = alpha-methyl-leucine; SITE 16: note = L-ornithine; SITE 17: note = Lysine is chemically mo) [Example 524] | 0.487 nM | – | 0.0266 nM | – | 5.11 nM | – | – | – | – | 32.7 nM | 1.46 nM | 464 nM |
| YXQGTXTSDXXILLDXKAQXXFIEYLIEGGPSSGEPPPEGAEE (non-natural residues, (γGlu)2-C18 diacid lysine acylation, C-terminal amide; synthetic construct; SITE 2: note = 2-Aminoisobutyric Acid; SITE 6: note = alpha-methyl-2-fluoro-L-phenylalanine; SITE 10: note = 3-(4-Pyridyl)-L-alanine; SITE 11: note = alpha-methyl-L-serine; SITE 16: note = L-ornithine; SITE 17: note = Lysine is chemically modified through conjugation of the epsi) [Example 604] | 0.705 nM | – | 0.161 nM | – | 5.5 nM | – | 51 nM | 4.84 nM | 427 nM | – | – | – |
| YXQGTXTSDXXIXLDXKAQXXFIEXLTEGGPSSGEPPPSGTGE (synthetic construct; SITE 2: note = 2-Aminoisobutyric Acid; SITE 6: note = alpha-methyl-2-fluoro-L-phenylalanine; SITE 10: note = 3-(4-Pyridyl)-L-alanine; SITE 11: note = alpha-methyl-L-serine; SITE 13: note = alpha-methyl-leucine; SITE 16: note = L-ornithine; SITE 17: note = Lysine is chemically mo) [Example 543] | 0.41 nM | – | 0.0319 nM | – | 4.56 nM | – | – | – | – | 32 nM | 1.88 nM | 300 nM |
| YXQGTXTSDXXILLDXKAQXXFIEYLIEGGPSSGEPPPEGSEE (non-natural residues; lysine acylated with C18 diacid; C-terminal amide; synthetic construct; SITE 2: note = 2-Aminoisobutyric Acid; SITE 6: note = alpha-methyl-2-fluoro-L-phenylalanine; SITE 10: note = 3-(4-Pyridyl)-L-alanine; SITE 11: note = alpha-methyl-L-serine; SITE 16: note = L-ornithine; SITE 17: note = Lysine is chemically modified through conjugation of the epsi) [Example 603] | 0.688 nM | – | 0.102 nM | – | 5.43 nM | – | 49.5 nM | 4.99 nM | 419 nM | – | – | – |
| YXQGTXTSDXXIXLDXKAQXNFIEXLQEGGPSSGEPPPEGTGE (synthetic construct; SITE 2: note = 2-Aminoisobutyric Acid; SITE 6: note = alpha-methyl-2-fluoro-L-phenylalanine; SITE 10: note = 3-(4-Pyridyl)-L-alanine; SITE 11: note = alpha-methyl-L-serine; SITE 13: note = alpha-methyl-leucine; SITE 16: note = L-ornithine; SITE 17: note = Lysine is chemically mo) [Example 527] | 0.446 nM | – | 0.0386 nM | – | 6.99 nM | – | – | – | – | 26.8 nM | 2.6 nM | 580 nM |
